The nature of the data set: label from the status in PepcDB records.
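Also: failed if final PepcDB status was selected cloned or expressed and not failed if soluble or beyond.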

As for “MAAAVSTVGAINRAPLSLNGSGSGAVSAPASTFLGKKVVTVSRFAQSNKKSNGSFKVLAVKEDKQTDGDRWRGLAYDTSDDQQDITRGKGMVDSVFQAPMGTGTHHAVLSSYEYVSQGLRQYNLDNMMDGFYIAPAFMDKLVVHITKNFLTLPNIKVPLILGIWGGKGQGKSFQCELVMAKMGINPIMMSAGELESGNAGEPAKLIRQRYREAADLIKKGKMCCLFINDLDAGAGRMGGTTQYTVNNQMVNATLMNIADNPTNVQLPGMYNKEENARVPIICTGNDFSTLYAPLIRDGRMEKFYWAPTREDRIGVCKGIFRTDKIKDEDIVTLVDQFPGQSIDFFGALRARVYDDEVRKFVESLGVEKIGKRLVNSREGPPVFEQPEMTYEKLMEYGNMLVMEQENVKRVQLAETYLSQAALGDANADAIGRGTFYGKGAQQVNLPVPEGCTDPVAENFDPTARSDDGTCVYNF”, the protein production entry is “failed”.
The result for “MAADYTHFIHRQHAPPEVCLSAFSGHNDALDFPDSEGSPVSQSLIAALQNPALFPHPVEGFQVIETHISWVLLTGPFAYKVKKPVNFGFLDFTSLDAREHFCGEELRLNQRLTEDLYLEVLPITGSAEAPVLGGDGPAIEYVLKMRQFPQSQLLSTLQANSELTTAHIDEMARQIAHFHLNAPKVPAEHEAGTPESVMAPVRQNFEQIRPFLSDKADLQQLEALEAWAETSFERLKPLLAQRKSEGFIRECHGDIHLGNATLIDGKVVIFDCIEFNEPFRFTDVYADTGFLAMDLEDRGLKSLARRFISQYLELTGDYQGLELLNFYKAYRALVRAKVSLFSMPAEATPVQRATTLRQYRNYANLAESYSTIPSRFLAITSGISAVGKSRVAMRLVEALGAVRLRSDVERKRLFGEQQVPNDPHAGIYSSEASSATYARLHEIAETILRAGFPVVIDATYLKRAQRDAAAKVAEATGTPCLIIDCNAPEAVVASWLAQRQADQNDPSDATLEVIANQQATREALTDEELLRSKRIETNESGSLDALVANIRQRLPGLLEHHHHHH” reads “failed”; that for “MAAFPNLNSGSGLKKLDEHLLTRSYITGYQASKDDITVFTALSKPPTSEFVNVSRWFNHIDALLRISGVSAEGSGVIVEGSSPITEEAVATPPAADSKDTAAEEEDDDDVDLFGEETEEEKKAAEERAASVKASTKKKESGKSSVLMDIKPWDDETDMKKLEEAVRSIQMEGLFWGASKLVPVGYGIKKLHIMCTIVDDLVSIDTMIEEQLTVEPINEYVQSCDIVAFNKI”, “failed”.
The result for “MAAGALPAREPGLLKPAVLWLLLLAPLFFSTYGFATWVTAQRDDVGSMVFDWERHMPFWAWTIVPYWSIDLLYGFSLLLPRSRDELKRHALRLLTAQVIAVSCFLLWPLSFTFSRPELDGVFGWLFAVLAGFDKPFNQAPSLHIALLVVLWVCYARHTQGFWRWLVHGWFALIGVSVLSTYQHHFIDVPTGALAGWLCVWLWPLDRPSPLFSARAAQDPKRRQLALRYGLGATLFAGAAFAWGGAALWLIWPAVALLLVALNYALLGAEGFQKRQDGSLSPAARWLLAPYLAAAWINSRLWTRKHPQPDPVVDNVWLGRLPTPAELKDSPFDAVLDLCAELSLDSRGLRAYQSLPVLDLCAPSAEQCLAAAHAIERLRQQGPLLVCCALGYSRSATAIAAWLLHSGRAATVDAAIVQIQRARPQIVLHPAHRQALQALSSAGRTAHVH” reads “failed”; that for “MAAGPEPPEWEPRWRKALRGKENKGSVEIMRKDLNDARDLHGQAESAAAVWKGHVMDRRKKALTDYKKLRAFFVEEEEHFLQEAEKDEGASEDDELADPADRFRSLLQAVSELEKKHRNLGLSMLLQ”, “not failed”; that for “MAAKSLVDIAYESDSSSDSSDEGDVPCLPKDEVNERKLQNLQRKAFYNLLQTFAFENSTMSNKRTEIIGKLMNEWGIANETHISFADQIQKKLLTLKQTKHSGVKETQIPATPLTNTATPSTFFVPKPVKSWGSVNPESLIGKWVSIRLPDKAKFTEYIIKAYDAEKEMHSLLTETSNPMEVDCIDPFRWIDIRDISPNDIMWEGGQKPNFAAPNQSAAATGQ”, “failed”.
As for “MAALLGIVSPVTFTGKHPVNSRSRRRTVVKCSNERRILFNRIAPVYDNLNDLLSLGQHRIWKNMAVSWSGAKKGDYVLDLCCGSGDLAFLLSEKVGSTGKVMGLDFSSEQLAVAATRQSLKARSCYKCIEWIEGDAIDLPFDDCEFDAVTMGYGLRNVVDRLRAMKEMYRVLKPGSRVSILDFNKSNQSVTTFMQGWMIDNVVVPVATVYDLAKEYEYLKYSINGYLTGEELETLALEAGFSSACHYEISGGFMGNLVAMR”, the entry is “failed”; as for “MAALSGVFVWDEERIQEEELQRSINEMKRLEEMSNIFQSSGVENYPPEPKSPAGGNEKSKDKEEPWEMVMDKKHFKLWRRPITGTHLYQYRVFGTYTDVTPRQFFNVQLDTEYRKKWDALVIKLEVIERDAVSGSEVLHWVTHFPYPMYSRDYVYVRRYSVDQENNVMVLVSRAVEHPSVPESPEFVRVRSYESQMVIRPHKSFDENGFDYLLTYSDNPQTVFPRYCVSWMVSSGMPDFLEKLHMATLKAKNMEIKVKDYISAKPLEMSSEAKATAPSPERKNEGSCGPARIEYA”, “failed”.
With “MAARLLFRRSSQILRSIQRNPQISSSFESPPCPIFHSLTTASPDPSRLSSLTFLRSLSIARRGPTRPKKIDIGAKARQMQNRRLWTYALTFSCIAGFVVIVLNQFQDQLVFYLTPSDAMEKFAENPTKNKFRLGGLVLEGSVAQPAASQEMEFVITDLITDILVRYKGSLPDLFREGHSVVVEGFIKPYTDEVRKEVSTKPISKKARNLDCFFSATEVLAKHDEKYMPQEVAAAIEKNKKIIEAAATEQAAEVAAS”, the protein production entry is “failed”.
As for “MAASPSTYAFNGESKETGNDSSKLSKAPATKGGKPHIIFIMSDQHRGDALHCMGNKAVISPNIDKLAQEGSLFVCGYSSAPSSTPARAGLLTGMSPWHHGMLGYGKVASKYKYEMPQMLRDLGYYTFGIGKMHWFPQKALHGFHATLVDESGRSETRDFISDYREWFQLQAPGKNPDLTGIGWNNHNAGTYKLEERLHPTAWTGQTACELIRNYDSDQPLFLKVSFARPHSPYDPPKRYLDMYEKVDIPVPFVGDWCGKYAERKDPERVSKDAAFANLGEEYAVNSRRHYYANVTFIDDQIGQIIQTLKEKGMYENAIICYTADHGDMLGDHYHWRKTYAYEGSAKIPYIIKWPSAMTTQAIRGKRIEQPVELRDFLPTFIELAGGTVPDDMDGKSLVALASGNKNGWRKYIDLEHATCYSADNYWCALTDGKMKYIWFIHTGEEQLFDLSSDPGEQKNLSGNSRYADRLVEMRKAMVDHLQERGTEFVKDGKLAVRDQTLLYSPNYPKD”, the entry is “failed”.
As for “MAASSQAPEAKGFRWKLIAPLVVWLAIYLWPVPSGLNVNQWHYFAVFAAVITGLILESMPVGAVGLIGLTVAGVGGYIDPDPTKSLRWMLAGFAESTVWLIVGAFVFSIGYRKSQLGRRIALVLVQKLGSNTLGLGYAVAMSDFLLAPATPSNTARSGGIVYPIISNIPRIYGSEPGPTAGRIGTYVMWTAFAATAVTSSLFFTALAPNAAALAIAKKTVGVEVSWGQWFIGFAPLGILLMILVPLLSYPVCRPEVKRSPEIAEWAAKELSEMGPMSRNEWIMLALIVLAMFLWIAGSSPDINVPLLGSNFVNATTVVFIVISLMLVTGVIEFADIVSEKSAWEVFFYFTSLLTLASGLNEIGFIKWFATEYAKPLAGLSPSTAMILLVALFFWIHYFFSSITSHAAAVLPVVLAVGSGIPGLPVTTLAMLCMYSLGLMGVISPYATGPAPMYFGSGYIGKGQFWGFGLIFGLLYFAGLLLIVLPWLQVR”, the entry is “failed”; as for “MAASTSSSSSSSSSSLSSPSPCTWRYMTFTSFHGPDVRNTFLSHLRKQFNTNGITMFDDQRMERSQTLAPTLTQAIRESKIYIVLLSKNYASSSWCLDELLEILNCKEKRGQRVMTIFYGVNPSDVRKQTGEFGIAFNETCARKTEEERRKWSHALTCVGNITGVHVQDRDDEANMIEKIATDVSEKLNATESKDFDEMVGIKAHLTKIESLLSLDYDKVKIVGISGPAGIGKSTIARALHNLLSSSFHLSCFMENLISQSNPHSSLEYSSKLSLQEQLLSQVLNEKDIRIRHLGAIQERLHDQRVLIILDDVTSLEQLEVLANIKWYGPGSRIIVITKKKDILVQHGICDIYHVGFPTDADALKIFCLSAYRQTSPPDGSMKIHECEMFIKICGNLPLHLHVLGSALRGRSYGRVQSLCNLVSLADFV”, “failed”; as for “MAAVWQQVLAVDARYNAYRTPTFPQFRTQYIRRRSQLLRENAKAGHPPALRRQYLRLRGQLLGQRYGPLSEPGSARAYSNSIVRSSRTTLDRMEDFEDDPRALGARGHRRSVSRGSYQLQAQMNRAVYEDRPPGSVVPTSAAEASRAMAGDTSLSENYAFAGMYHVFDQHVDEAVPRVRFANDDRHRLACCSLDGSISLCQLVPAPPTVLRVLRGHTRGVSDFAWSLSNDILVSTSLDATMRIWASEDGRCIREIPDPDSAELLCCTFQPVNNNLTVVGNAKHNVHVMNISTGKKVKGGSSKLTGRVLALSFDAPGRLLWAGDDRGSVFSFLFDMATGKLTKAKRLVVHEGSPVTSISARSWVSREARDPSLLINACLNKLLLYRVVDNEGTLQLKRSFPIEQSSHPVRSIFCPLMSFRQGACVVTGSEDMCVHFFDVERAAKAAVNKLQGHSAPVLDVSFNCDESLLASSDASGMVIVWRREQK”, “failed”.
In the case of “MAAWCSPRWLRVAVGTPRLPAAAGRGVQQPQGGVVAASLCRKLCVSAFGLSMGAHGPRALLTLRPGVRLTGTKSFPFVCTASFHTSASLAKDDYYQILGVPRNASQKDIKKAYYQLAKKYHPDTNKDDPKAKEKFSQLAEAYEVLSDEVKRKQYDAYGSAGFDPGASSSGQGYWRGGPSVDPEELFRKIFGEFSSSPFGDFQNVFDQPQEYIMELTFNQAAKGVNKEFTVNIMDTCERCDGKGNEPGTKVQHCHYCSGSGMETINTGPFVMRSTCRRCGGRGSIITNPCVVCRGAGQAKQKKRVTVPVPAGVEDGQTVRMPVGKREIFVTFRVQKSPVFRRDGADIHSDLFISIAQAILGGTAKAQGLYETINVTIPAGIQTDQKIRLTGKGIPRINSYGYGDHYIHIKIRVPKRLSSRQQNLILSYAEDETDVEGTVNGVTHTSTGGRTMDSSTGSKDRREAGEDNEGFLSKLKKIFTS”, the protein production entry is recorded as “failed”.
As for “MAAWRAEARRLAQAGVPAESVVWRVGAGEADLFADLPALPAGPARQIRLSREAVGSLETALCHADPERFGRAYGLLLRLADGTLRWGDRSDPALRKLLAQEKMVRREIHKMHAFVRFRELPSEGPRRAFAAWFEPDHPVEEAATPFFARRFGDMDWAIVTPEVTARFVAGQLDFALTEERTAPPADGTEELWRTYYANIFNPARLMVKAMQSEMPKRYWKNLPEAELIPGLIRGAAERAAEMQAAAPTEPPARTAAVARQRAAAAGGPAAAGDGSAPGTLAEAKTAAEGCRRCGLWANATQVVFGEGPATARMMIVGEQPGDREDLAGRPFVGPAGQLFDEEAAAAGLDRGSVYVTNAVKHFKFAPRGKRRIHQKPDAGEVTACRWWLDLERDLVRPRLIVAMGATALASLTGSGAGILKRRGSVERLDDGTPVFVTVHPSYILRLPDEAARVEERRRFRDDLQAARQLLERLD”, the entry is “failed”; as for “MAAYQVLIVGAGFSGAETAFWLAQKGVRVGLLTQSLDAVMMPFLPPKPPFPPGSLLERAYDPKDERVWAFHARAKYLLEGLRPLHLFQATATGLLLEGNRVVGVRTWEGPPARGEKVVLAVGSFLGARLFLGGVVEEAGRLSEASYPDLLEDLSRLGFRFVEREGEVPETPSTPGYRVRYLAFHPEEWEEKTFRLKRLEGLYAVGLCVREGDYARMSEEGKRLAEHLLHELG”, “not failed”.

The values above are taken from a protein production outcome set (Wang et al. 2014).
